The values below come from patent US20260167731A1 (DOMAIN THERAPEUTICS, published 2026).

Positions count from the first letter of the chain named. “And” between values parts separate entries of the source, which are not always exact repeats. Identical values can stand only once.

For assay [1], the target named is T1, human CCR8 (human, UniProt P51685 1-355). Put plainly: cell-based or functional assay.
The target of assay [2] is T1, human CCR8. The assay can be described thus: cell-based or functional assay. This is another data set of the same source.
For assay [3], the target named is T1, human CCR8. The assay can be described thus: cell-based or functional assay. The source holds these as a separate data set.
The target in assay [4] is T1, human CCR8. The assay can be described thus: flow cytometry, hCCR8 transfected CHOK1 cells. Here is the method:
The same staining protocol was applied on human CCR8 transfected CHO cell line versus wild type CHO cell line, cutaneous T cell lymphoma HUT78 cell line and human activated T cell model.
Briefly, 1·10⁵ cells per well in a 96 well plate were incubated with a dilution of unconjugated anti-CCR8 mAb at 10 μg/mL then diluted at 1/3.33, 4 dilution points (during 30 min at 4° C.). In human activated T cells model, prior to mAb incubation, cells were first incubated with 200 nM of hCCL1 (R&D Systems, Minneapolis, MN, USA) or buffer PBS (Invitrogen by Thermofisher Scientific, Illkirch-Graffenstaden, France) supplemented by 2% Fetal Bovine Serum (Invitrogen by Thermofisher Scientific, Illkirch-Graffenstaden, France) and 2 mM EDTA (Invitrogen by Thermofisher Scientific, Illkirch-Graffenstaden, France) during 1 hour at 4° C. To determine EC50 value, 8 concentrations of anti-CCR8 mAb were tested. Unbound antibodies were washed away with PBS (Invitrogen by Thermofisher Scientific, Illkirch-Graffenstaden, France) supplemented by 2% Fetal Bovine Serum (Invitrogen by Thermofisher Scientific, Illkirch-Graffenstaden, France) and 2 mM EDTA (Invitrogen by Thermofisher Scientific, Illkirch-Graffenstaden, France). Subsequently, cells are centrifuged (5 min at 400 g) and bound antibody is detected with F(ab′)₂-Goat anti-Mouse IgG (H+L) Cross-Adsorbed Secondary Antibody, Alexa Fluor 488 (dilution 1/500) (Invitrogen by Thermofisher Scientific, Illkirch-Graffenstaden, France) or with F(ab′)₂-Goat anti-Human IgG Fc Secondary Antibody, PE (Invitrogen by Thermofisher Scientific, Illkirch-Graffenstaden, France) (dilution 1/1000) at 4° C. for 30 min. Detection reagent is washed away and cells are centrifuged (5 min at 400 g) and resuspended in 30 μL PBS. Bound detection antibody is quantified on a MacsQuant16 (Miltenyi, Gladbach, Germany) (B1 or B2 channel, 5000 events per acquisition). During the experiment, the respective isotype mAb controls (mouse IgG1, mouse IgG2a, mouse IgG2b, mouse IgG3 or human IgG1) (Biolegend, Amsterdam, The Netherlands) are included to exclude any unspecific binding events.
In general terms: Flow cytometry measures light scatter and fluorescence of single cells or particles in a stream.

In assay [5] the target is T1, human CCR8. Put plainly: flow cytometry, inhibition of hCCL1-AF647 binding to hCCR8 CHO cells. As to the method: The hCCR8 transfected CHO cell line was dispatched at a density of 1·10⁵ per well in a 96-well plate. Cells were incubated for 30 min at 4° C. with or without anti-CCR8 mAb tested at 10 μg/mL then diluted at 1/3. Unbound antibodies were washed away with PBS (Gibco, Villebon-sur-Yvette, France) supplemented by 2% Fetal Bovine Serum (Invitrogen by Thermofisher Scientific, Illkirch-Graffenstaden, France) and 2 mM EDTA. […] After washing unbound ligands, CCL1 bound detection is quantified on a MacsQuant16 (Miltenyi, Gladbach, Germany) (R1 channel, 5 000 events per acquisition).
For IC₅₀ determination, a concentration response curve is performed using 8 concentrations of mAb. Curves are fitted and IC₅₀ of CCL1 binding blocking activity is calculated using the sigmoidal dose-response (variable slope) model on GraphPad Prism 9 (GraphPad Software, San Diego, CA, USA).

Assay [6] concerns the target pm1, modified CCR8 related peptide (human, sulfated tyrosine at Y15). Put plainly: ELISA on coated CCR8 peptide (500 ng/mL), OD [cont.]. As to the method:
(§1) The specific binding properties of antibodies were evaluated by ELISA with coated CCR8 related peptides (500 ng/mL) in carbonate/bicarbonate buffer. Different peptides were used as described in Table 1 (see Example 1). Each anti-CCR8 mAb was tested at 1 μg/mL then diluted at 1/10. After an incubation at room temperature during 90 min, unbound mAbs were removed by washings. […] After washings, 3,3′,5,5′-tetramethylbenzidine (TMB) (Interchim, Montlugon, France) was added for 15 min. Then the optical density (OD) was determined by using a multiplate reader (Tecan, Lyon, France) and correlated with mAb reactivity on the panel of coated peptides.

In assay [7] the target is pm2, modified CCR8 related peptide (human, sulfated tyrosine at Y16). The description is as above. As to the method: as §1
In assay [8] the target is pm5, modified CCR8 related peptide (human, sulfated tyrosines at Y15 and Y17). The description is as above. As to the method: as §1
The target of assay [9] is pm4, modified CCR8 related peptide (human, sulfated tyrosines at Y15 and Y16). The description is as above. Here is the method: as §1
The target of assay [10] is pm6, modified CCR8 related peptide (human, sulfated tyrosines at Y16 and Y17). Described as above. Here is the method:
as §1

The target in assay [11] is T2, pwt1, unmodified CCR8 related peptide (human, none (non-sulfated Y15, Y16, Y17)).
T2 construct: First 34 amino acids of human CCR8, synthetic; also called unmodified peptide
The assay is described as above. As to the method: as §1

Assay [12] concerns the target pm3, modified CCR8 related peptide (human, sulfated tyrosine at Y17). Described as above. Here is the method: as §1
In assay [13] the target is pm8, modified CCR8 related peptide (human, sulfated tyrosines at Y15, Y16 and Y17). The assay is described as above. As to the method:
as §1

In assay [14] the target is T1, human CCR8. The assay can be described thus: cell-based or functional assay. This is another data set of the same source.

pm5, modified CCR8 related peptide (human, sulfated tyrosines at Y15 and Y17), sequence (peptide, as listed by the source): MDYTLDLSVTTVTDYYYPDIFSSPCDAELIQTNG
pm3, modified CCR8 related peptide (human, sulfated tyrosine at Y17), sequence (peptide, as listed by the source): as above
T2 sequence (peptide, as listed by the source): as above
pm4, modified CCR8 related peptide (human, sulfated tyrosines at Y15 and Y16), sequence (peptide, as listed by the source): as above
pm2, modified CCR8 related peptide (human, sulfated tyrosine at Y16), sequence (peptide, as listed by the source): as above
pm6, modified CCR8 related peptide (human, sulfated tyrosines at Y16 and Y17), sequence (peptide, as listed by the source): as above
pm8, modified CCR8 related peptide (human, sulfated tyrosines at Y15, Y16 and Y17), sequence (peptide, as listed by the source): as above
pm1, modified CCR8 related peptide (human, sulfated tyrosine at Y15), sequence (peptide, as listed by the source): as above

B1: chimeric anti-CCR8 mAb 2-17 (antibody, human IgG1, kappa)
heavy: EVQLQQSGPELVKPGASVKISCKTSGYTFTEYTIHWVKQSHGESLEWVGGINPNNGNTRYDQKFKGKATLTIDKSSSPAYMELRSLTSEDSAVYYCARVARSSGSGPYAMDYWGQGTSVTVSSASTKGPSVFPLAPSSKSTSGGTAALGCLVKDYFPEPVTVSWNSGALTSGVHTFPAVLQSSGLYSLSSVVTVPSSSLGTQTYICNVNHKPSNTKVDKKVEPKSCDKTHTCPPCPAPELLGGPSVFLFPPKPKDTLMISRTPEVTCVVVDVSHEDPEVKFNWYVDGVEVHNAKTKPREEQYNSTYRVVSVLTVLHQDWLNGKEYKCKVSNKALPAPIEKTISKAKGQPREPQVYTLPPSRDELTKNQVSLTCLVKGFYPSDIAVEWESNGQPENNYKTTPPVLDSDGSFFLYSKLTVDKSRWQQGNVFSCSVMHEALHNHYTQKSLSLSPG
light: DVVMTQTPLSLPVSLGDQASISCRCTQSLLHTNGDTYLHWYLQKPGQSPKLLIYKVSNRFSGVPDRFSGSGSGTDFTLKISRVEAEDLGVYFCSQSTHVPYTFGGGTKLEIKRTVAAPSVFIFPPSDEQLKSGTASVVCLLNNFYPREAKVQWKVDNALQSGNSQESVTEQDSKDSTYSLSSTLTLSKADYEKHKVYACEVTHQGLSSPVTKSFNRGEC
Regarding B1, in the assay with human CCR8 [1], the “ADCC % Max lysis, HUT78 targets, NK cells Donor 3” value was found to be 14%; the “ADCC % Max lysis, HUT78 targets, NK cells Donor 4” value stood at 15%; the “ADCC EC50, HUT78 targets, NK cells Donor 3” value was determined as 793 pM; the “ADCC EC50, HUT78 targets, NK cells Donor 4” value came to 1520 pM.

B2: hypofucosylated (low fucosylated) chimeric anti-CCR8 mAb 2-19 (antibody, human IgG1, kappa)
heavy: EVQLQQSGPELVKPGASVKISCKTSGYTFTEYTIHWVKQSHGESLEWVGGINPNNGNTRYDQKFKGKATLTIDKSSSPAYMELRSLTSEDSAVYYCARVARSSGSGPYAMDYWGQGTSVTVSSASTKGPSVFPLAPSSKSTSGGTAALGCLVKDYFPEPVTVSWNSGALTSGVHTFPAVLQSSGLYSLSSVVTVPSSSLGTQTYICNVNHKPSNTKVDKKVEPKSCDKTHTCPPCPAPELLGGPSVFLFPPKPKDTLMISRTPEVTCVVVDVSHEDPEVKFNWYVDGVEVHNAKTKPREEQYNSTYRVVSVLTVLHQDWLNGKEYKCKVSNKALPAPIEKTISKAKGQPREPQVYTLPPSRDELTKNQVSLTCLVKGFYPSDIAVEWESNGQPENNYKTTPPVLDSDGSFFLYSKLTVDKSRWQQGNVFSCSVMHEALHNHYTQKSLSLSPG
light: B1 light
modifications: hypofucosylated Fc glycan
B2: in the assay with human CCR8 [1], the “ADCC % Max lysis, HUT78 targets, NK cells Donor 3” value was found to be 29%; the “ADCC % Max lysis, HUT78 targets, NK cells Donor 4” value stood at 29%; the “ADCC EC50, HUT78 targets, NK cells Donor 3” value was found to be 195 pM; the “ADCC EC50, HUT78 targets, NK cells Donor 4” value came out at 282 pM.

B3: anti-CCR8 mAb 2-9 (antibody, V domains shown)
VH: QVQLQQPGSELVRPGASVKLSCKASGYTFTSYWMHWVKQRPGQGLEWIGNIWPGSASTNYDEKFKNKATLTVDTSSSTAYMQLSSLTSEDSAVYYCIRGGKGAMDYWSQGTSVTVSS
VL: DVVMTQIPLSLPVSLGDQASISCRSSQSLENSYGNTYLNWYLQKPGQSPQLLIYRVSNRFSGVLDRFSGSGSGTDFTLKISRVEAEDLGVYFCLQVTHVPPTFGAGTKLELK
As a reminder, the IC50 is the concentration at which inhibition is half-maximal. Lower therefore signals inhibition by little substance. B3: the “IC50, CCL1 induced hCCR8 Gi2 signaling (BRET, HEK-293)” value (from here on “IC50 … (BRET, HEK-293)”) in the assay with human CCR8 [2] was 0.026 µg/mL and 0.172 nM. For the same molecule, in the assay with human CCR8 [3], the “hCCL1 (100 nM) residual response in %, Protocol #2, mAb 0.08 µg/mL (0.53 nM)” value was determined as 99%; the “hCCL1 (100 nM) residual response in %, Protocol #2, mAb 0.4 µg/mL (2.67 nM)” value amounted to 83%; the “hCCL1 (100 nM) residual response in %, Protocol #2, mAb 10 µg/mL (66.7 nM)” value is 56%; the “hCCL1 (100 nM) residual response in %, Protocol #3, mAb 0.05 µg/mL (0.33 nM)” value was 116%. Moreover, in the assay with human CCR8 [3], the “hCCL1 (100 nM) residual response in %, Protocol #3, mAb 0.5 µg/mL (3.33 nM)” value was 90% and the “hCCL1 (100 nM) residual response in %, Protocol #3, mAb 5 µg/mL (33.3 nM)” value was found to be 45%. Also, in the assay with human CCR8 [4], the “% positive cells” value was determined as 81.6% and the “MFI fold change to isotype ctrl” value worked out at 9.92 fold. The concentration for half-maximal inhibition (IC50) with human CCR8 [5] is 1.18 µg/mL and 7.92 nM.

B4: anti-CCR8 mAb 2-6 (antibody, V domains shown)
VH: QVQLKESGPGLVAPSQSLSITCTVSGLSMNDYVVTWIRQPPGKGLEWLGVIWGGGNTYYNSDLKSRLSITKDNSKSQVFFKMSSLQTDDTAVYYCARRHRDYALDYWGQGISVTVSS
VL: ENVLTQSPAIMSASPGEKVTMTCRASSSVSSSYLHWYQQKSGASPKLWIYSTSNLASGVPARFSGSGSGTSYSLTISSVEAEDAATYYCQQYSGYPYTFGGGTKLEIK
For the molecule B4, the binding result in assay [6], in [7], in assay [8], in assay [9], in assay [10] and in assay [11] was “binds” in each case. The binding result in [12] and in [13] was “binds” in each case. For the same molecule, in the assay with human CCR8 [2], the “IC50 … (BRET, HEK-293)” value is 0.106 µg/mL and 0.706 nM. In addition, the “% positive cells” value with human CCR8 [4] was determined as 69.9%. In addition, in the assay with human CCR8 [4], the “MFI fold change to isotype ctrl” value worked out at 5.81 fold. For the same molecule, the 50% inhibitory concentration (IC50) with human CCR8 [5] was 1.25 µg/mL and 8.34 nM.

B5: anti-CCR8 mAb 2-5 (antibody, V domains shown)
VH: EVQLQQSGPELVKPGASVKISCKTSGYTFTEYTIHWVKQSHGKSLEWVGGINPDNGNTRYDQKFKGKATLTIDKSSSTAYMELRSLTSEDSAVYYCARVARSSGSGPYAMDYWGQGTSVTVSS
VL: DVVMTQTPLSLPVSLGDQASISCRCTQSLLHTNGDTYLHWYLQKPGQSPKLLIYKVSNRFSGVPDRFSGSGSGTDFTLKISRVEAEDLGVYFCSQSTHVPYTFGGGTKLEIK
B5: the binding result in [6], in assay [7], in assay [8], in [9], in assay [10] and in assay [11] was “binds” in each case. The binding result in [12] and in assay [13] was “binds” each time. The “IC50 … (BRET, HEK-293)” value in the assay with human CCR8 [2] was 0.044 µg/mL and 0.291 nM. In addition, the “% positive cells” value in the assay with human CCR8 [4] came to 73.7%. For the same molecule, in the assay with human CCR8 [4], the “MFI fold change to isotype ctrl” value is 10.3 fold. In the assay with human CCR8 [5], the IC50 was 1.15 µg/mL and 7.73 nM.

B6: anti-CCR8 mAb 2-7 (antibody, V domains shown)
VH: QVQLKESGPGLVAPSQSLSITCTVSGFSLTDYRVSWIRQPPGKGLEWLGVIWGGRSTYYNSALKSRLSISKDNSKSQVFLKMNSLQTDDTAMYYCAKQGDGYYALDYWGQGTSVTVSS
VL: B5 VL with C25S, T26S, L30V, T32S, N33Y, D35N, S68H, Y101P
For the molecule B6, the binding result in assay [6], in assay [7], in [8], in assay [9], in assay [10] and in [11] was “binds” in each case. Also, the binding result in assay [12] and in assay [13] was “binds” in each case. In addition, the “IC50 … (BRET, HEK-293)” value in the assay with human CCR8 [2] was 0.552 µg/mL and 3.68 nM. In the assay with human CCR8 [4], the “% positive cells” value is 57.7%. In addition, the “MFI fold change to isotype ctrl” value in the assay with human CCR8 [4] is 3.84 fold. In addition, in the assay with human CCR8 [14], the “IC50, CCL1 induced hCCR8 Gi2 signaling (BRET) at pH 6.5” value was 0.516 µg/ml and 3.44 nM. In addition, the “IC50, CCL1 induced hCCR8 Gi2 signaling (BRET) at pH 7.4” value with human CCR8 [14] was 0.82 µg/ml and 5.47 nM. In addition, the IC50 in the assay with human CCR8 [5] is 2.73 µg/mL and 18.3 nM.
